Here are results for 41 sequences from the nanobody polyreactivity screen of Harvey et al. (2022).

A short description of this data set: yeast display, Sf9 membrane polyspecificity reagent, FACS + sequencing; frameworks hold sequencing errors. In short, it runs like this: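 Polyreactivity labels are assigned by the sorting gate from which each nanobody was recovered. The gates were low and high (top ~1%), set on anti-HA fluorescence for expression and streptavidin fluorescence for reagent binding. Before sorting, galactose-induced (36–48 hours) yeast display cells were stained for 1 hour at 4 °C with 10% biotinylated, detergent-solubilized Sf9 membrane reagent.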
With “QVQLVESGGGLVQAGGSLRLSCAASGSTFYNNAMGWYRQAPGKERELVAAITSSVGSTHYADSVKGRFTISRDNAKNTVYLQMNSLKPEDSAVYYCNARGRLYGHLYDYWGQGTQVTVSS”, the “polyreactivity (PSR sort gate)” value is “low polyreactivity”.
To “QVQLVESGGGLVQAGGSLRLSCAASGSTFYNYVMGWYRQAPGKERELVAAISSSGGNTYYADSVKGRFTISRDNAKNTVYLQMNSLKPEDTAVYYCAARERHPSGGKYDYWGQGTQVTVSS” belongs “high polyreactivity”; to “QVQLVESGGGLVQAGGSLRLSCAASGSTFYPNAMGWYRQAPGKERELVAAIDRGGSTSYADSVKGRFTISRDNAKNTVYLQMNSLKPEDTAVYYCAVARGGRRKYEYWGQGTQVTVSS”, “low polyreactivity”.
Turning to “QVQLVESGGGLVQAGGSLRLSCAASGSTFYPNAMGWYRQAPGKERELVAAIRTRGGSTYYADSVKGRFTISRDNAKNTVYLQMNSLKPEDTAVYYCAAEKRYRKAFDYWGQGTQVTVSS”, the “polyreactivity (PSR sort gate)” value is on record as “low polyreactivity”.
The result for “QVQLVESGGGLVQAGGSLRLSCAASGSTFYPNAMGWYRQAPGKERELVAAISRSGGSTYYADSVKGRFTISRDNAKNTVYLQMNSLKPEDTAVYYCAADGRSPARYDYWGQGTQVTVSS” reads “low polyreactivity”; that for “QVQLVESGGGLVQAGGSLRLSCAASGSTFYPNSMGWYRQAPGKERELVDAISWSGGYTYYADSVKGRFTISRDNAKNTVFLQMNSLNPEDTAVYYCAAREFLYSWYTHLKYDYWGQGTQVTVSS”, “low polyreactivity”.
Regarding “QVQLVESGGGLVQAGGSLRLSCAASGSTFYPYALGWYRQAHGKVRELVATISFSGGRTYYADSVKGRFTISRDNAKNTVYLQMHSLKPEDTAVYYCAAVSYWHDGHRGNYWGQGTQVTVSS”, the “polyreactivity (PSR sort gate)” value is given as “low polyreactivity”.
For “QVQLVESGGGLVQAGGSLRLSCAASGSTFYPYAMGWYRPAPGKERELVAGITSSGGSTYYADSVKGRFTISRDNAKNTVYLQMISLKPEDTAVYYCNAYIDALPVSYQYDYWGQGTQVTVSS”, the “polyreactivity (PSR sort gate)” value is “low polyreactivity”.
Take “QVQLVESGGGLVQAGGSLRLSCAASGSTFYPYAMGWYRQAPGKERELVAAINWSGGTTYYADSVKGRFTISRDNAKNTVYLQLNSLKPEDTAVYYCAADGYPPGYGYWGQGTQVTVSS”: the “polyreactivity (PSR sort gate)” value is “low polyreactivity”.
Take “QVQLVESGGGLVQAGGSLRLSCAASGSTFYPYAMGWYRQAPGKERELVAAISSGGSTYYADSVKGRFTISRDNAKNTVYLQMNSLKPEDTAVYYCAADLYYAYYWGQGTQVTVSS”: the “polyreactivity (PSR sort gate)” value is listed as “low polyreactivity”.
Turning to “QVQLVESGGGLVQAGGSLRLSCAASGSTFYPYAMGWYRQATGKERELVAGISWSGGSTYYADSVKGRFTFSRDNAKNTVYLQMNSLNPEDTAVYYCAVDVYWSVIYDYWGQGTQVTVSS”, the “polyreactivity (PSR sort gate)” value is reported as “low polyreactivity”.
In the case of “QVQLVESGGGLVQAGGSLRLSCAASGSTFYPYFMGWYREAPGKERELVAAITYRGSTYYADSVKGRFTISRDNAKYTVYLQMNSLKPEDTAVYYCAAAVYAIDYTYYYWGQGTQVTVSS”, the “polyreactivity (PSR sort gate)” value was “high polyreactivity”.
The result for “QVQLVESGGGLVQAGGSLRLSCAASGSTFYPYGMGWYRPAPGKERELVAAITDSGGSTYYADSVKGRFTISRDNAKNTVYLQMNSLKPEDTAVYYCAKTYWYPWRASLWHEYDYWGQGTQVTVSS” reads “low polyreactivity”.
For “QVQLVESGGGLVQAGGSLRLSCAASGSTFYQYAAMGWYRQAPGKERELVAAISGRGTRTYYADSVKGRFTISRDNAKNTVYLQMNSLKPEDTAVYYCAAEVNIRQYGFDYWGQGTQVTVSS”, the “polyreactivity (PSR sort gate)” value is “high polyreactivity”.
The result for “QVQLVESGGGLVQAGGSLRLSCAASGSTFYQYAMGWYRQAPGKERELVAAISRISGSTSYADSVKGRFTISRDNAKNTVYLQLYSLKPEDTAVYYCAKGTAPIPYRGRVGTSKSDYWGQGTQVTVSS” reads “low polyreactivity”.
As to “QVQLVESGGGLVQAGGSLRLSCAASGSTFYQYAMGWYRQAPGKERELVAAISWDSGSTYYADSVKGRFTISRDNAKNTVYLQMNSLKPEDTAVYYCAASWYGYYDCYAVEYDYLGQGTQVTVSS”, the “polyreactivity (PSR sort gate)” value was “low polyreactivity”.
With “QVQLVESGGGLVQAGGSLRLSCAASGSTFYQYAMGWYRQSPGKERELVAAISGISGSTSYADSVKGRFTISRDNAKNTVYLQMNSLKPEDTAVYYCAKGTAPIPYRGRVGTSKSDYWGQGTQVTVSS”, the “polyreactivity (PSR sort gate)” value is “low polyreactivity”.
“QVQLVESGGGLVQAGGSLRLSCAASGSTFYQYVMGWYRQAPGKERELVAAISGSGGSTYYADSVKGRFTISRDNAKNTVYLQMNSLKPEDTAVYYCAADNYFDWYWLFFEYDYWGQGTQVTVSS”: the “polyreactivity (PSR sort gate)” value is reported as “high polyreactivity”.
“QVQLVESGGGLVQAGGSLRLSCAASGSTFYRNAMGWYIQAPGKVRELVAAISQSGGRTYYADSVKGRFTISRDNAKNTVYLQMNSLKPEDTAVYYCATAFRKDRGFYPSRDYWGQGTQVTVSS”: the “polyreactivity (PSR sort gate)” value is listed as “high polyreactivity”.
Take “QVQLVESGGGLVQAGGSLRLSCAASGSTFYRNVMGWYRQAPGKERELVAAISSGGSTYYADSVIGRFTISRDNAKNTVYLQLNSLKPEDTAVYYCARRLTREYDYWGQGTQVTVSS”: the “polyreactivity (PSR sort gate)” value is recorded as “low polyreactivity”.
With “QVQLVESGGGLVQAGGSLRLSCAASGSTFYRYAIRWYRQAPGKERELVAAISKRGGSTYYADSVKGRFTISRDNAKNTVYLQMNSLKPEDTAVYYCAADPFHYGGGDDYWGQGTQVTVSS”, the “polyreactivity (PSR sort gate)” value is listed as “high polyreactivity”.
To “QVQLVESGGGLVQAGGSLRLSCAASGSTFYRYAKVSYRQAPGKARELVAAITRTGGSTYADSVKGRFTISRDNAKYTDYLQMKSLKPEDTAVYYCAVQRYYVSSISPFYYWGQGTQVTVSS” belongs “low polyreactivity”; to “QVQLVESGGGLVQAGGSLRLSCAASGSTFYRYAMGWYRQAPGKEREFVAAISRSGGSTYYADSVKGRFTISRDNAKNTVYLQMNSLNPEDTAVYYCNALNYRYRKYDYWGQGTQVTVSS”, “high polyreactivity”; to “QVQLVESGGGLVQAGGSLRLSCAASGSTFYRYAMGWYRQAPGKEREFVAAISTRGGSTHYADSVKGRFTISRDTAKNTVYLHMNSLKPEDTAVYYCNARGYYSVPSNTGIRYYRFDYWGQGTQVTVSS”, “high polyreactivity”.
Take “QVQLVESGGGLVQAGGSLRLSCAASGSTFYRYAMGWYRQAPGKERELVAAIDSSGGSTYYPDSVKGRFTISRDNAKNTVYLQMNSLKPEDTAVYYCATDLPPGGYDSWGQVTQVTVSS”: the “polyreactivity (PSR sort gate)” value is “low polyreactivity”.
As for “QVQLVESGGGLVQAGGSLRLSCAASGSTFYRYAMGWYRQAPGKERELVAAISKRGGSTYYADSVKGRFTISRDNAKNTVYLQMNSLKPEDTAVYYCAADPFHYGGGDDYWGQGTQVTVSS”, the “polyreactivity (PSR sort gate)” value was “high polyreactivity”.
The result for “QVQLVESGGGLVQAGGSLRLSCAASGSTFYRYAMGWYRQAPGKERELVAAISSGGRTYYADSVKGRFTISRDNAKNTVYLQMNSLKPEDTAVYYCAADDSEGFDYWGQGTQVTVSS” reads “high polyreactivity”.
Turning to “QVQLVESGGGLVQAGGSLRLSCAASGSTFYRYAMGWYRQAPGKERELVAAITRSDGITYYADSVKGRFTISRDNAKNTVYLQMNSLKPEDTAVYYCAKGYVGSFYDDFYYWGQGTQVTVSS”, the “polyreactivity (PSR sort gate)” value is “low polyreactivity”.
“QVQLVESGGGLVQAGGSLRLSCAASGSTFYRYAMGWYRQAPGKERELVARIRLSGTSTYYADSVKGRFTISRDNAKNTVYLQMNSLKPEDTAVYYCAAELYSRNWRSQYDYWGQGTQVTVSS”: the “polyreactivity (PSR sort gate)” value is reported as “high polyreactivity”.
As for “QVQLVESGGGLVQAGGSLRLSCAASGSTFYRYAMGWYRQAPGKERELVATITNSGGSTYYADSVKGRFTISRDNAKNTVYLQMNSLKPEDTAVYYCARVRSRNTGYYYWGQGTQVTVSS”, the “polyreactivity (PSR sort gate)” value was “high polyreactivity”.
With “QVQLVESGGGLVQAGGSLRLSCAASGSTFYRYTMGWYRQAPGKERELVAAISRGGDSTYYADSVKGRFTISRDNAKNTVYLQMNSLKPEDTAVYYCAANVGARKFGYEYNYWGQGTQVTVSS”, the “polyreactivity (PSR sort gate)” value was “high polyreactivity”.
With “QVQLVESGGGLVQAGGSLRLSCAASGSTFYRYTMGWYRQAPGKERELVAAISRSGGRTYYADSVKGRFTISRDNAKNTVYLQMNSLIPEDTAVYYCNAEIASSAVQAQEGDYWGQGTQVTVSS”, the “polyreactivity (PSR sort gate)” value is “high polyreactivity”.
Take “QVQLVESGGGLVQAGGSLRLSCAASGSTFYSNAMGWYRQAPGKERELVAAINRGSSTYYADSVKGRFTISRDNAKNTVYLQMNSLKPDDTAVYYCAVDYFWYEMDYWGQGTQVTVSS”: the “polyreactivity (PSR sort gate)” value was “low polyreactivity”.
“QVQLVESGGGLVQAGGSLRLSCAASGSTFYSNAMGWYRQAPGKERELVDSISWSSGSTYYADSVKGRFTISRDNAKNTVYLQMNSLKPEDTAVYYCATDAGGPYRFGYWGQGTQVTVSS”: the “polyreactivity (PSR sort gate)” value is listed as “low polyreactivity”.
The result for “QVQLVESGGGLVQAGGSLRLSCAASGSTFYSNTMGWYRQAPGKERELVAAITRSGGSTYYADSVKGRFTISRDNAKNTVYLQMNSLKPEETAVYYCNTGYKTRALYWPYDYWGQGTLVTVSS” reads “high polyreactivity”; that for “QVQLVESGGGLVQAGGSLRLSCAASGSTFYSYAMGWYRQAPGKERELVAAISWRGGTTYYADSVKGRFTISRDNAKNTVYLQMNSLKPEDTAVYYCNARFYRWRSYGYDYWGQGTQVTVSS”, “high polyreactivity”.
As to “QVQLVESGGGLVQAGGSLRLSCAASGSTFYSYAMGWYRQAPGKERELVAAITSRGDRTYYADSVKGRFTISRDNAKNTVYLQMNSLKPEDTAVYYCAAEQSWQGYAYYYWGQGTQVTVSS”, the “polyreactivity (PSR sort gate)” value is on record as “high polyreactivity”.
Turning to “QVQLVESGGGLVQAGGSLRLSCAASGSTFYTNAMGWYRPAPGKEREFVAAISWSGSSTYADSVKGRFTISRDNAKNTVYLQMNSLKPEDTAVYYCAADWFKLRTDYYWGQGTQVTVSS”, the “polyreactivity (PSR sort gate)” value is reported as “low polyreactivity”.
On to “QVQLVESGGGLVQAGGSLRLSCAASGSTFYTNAMGWYRQAPGKERELVAAINRSGGRSYYADSVKGRFTISRDNAKNTVYLQMNSLKQEDTAVYYCAARYPLRISTDTARDYYWGQGTQVTVSS”, for which the “polyreactivity (PSR sort gate)” value is reported as “low polyreactivity”.
The result for “QVQLVESGGGLVQAGGSLRLSCAASGSTFYTNDMGWYRQAPGKERELVAAITSSGNTNYADSVKGRFTISRDNAKNTVFLQMNCLKPEDTAVYYYYYYQYDYWGQGTQVTVSS” reads “low polyreactivity”.
Take “QVQLVESGGGLVQAGGSLRLSCAASGSTFYTYAMGWYRQAPGKEMELVADITRGGSTYYADSVKGRFTISRDNAKNTVYLQMNSLKPEDTAVYYCAADYTWLSFFEFDYWGQGTQVTVSS”: the “polyreactivity (PSR sort gate)” value is given as “high polyreactivity”.
